Residue numbers refer to the chain shown, from its start. Numbers in names are those of the source.
Target: the molecule itself
Assay: AUC; sedimentation velocity, absorbance optics, 20 mM Tris-HCl pH 8.0, 100 mM NaCl, 2 mM DTT, 20 °C, c(s) model in Sedfit

B1: sNlpI (soluble NlpI without its lipoprotein signal peptide) (natural protein, E. coli, UniProt P0AFB1 20-294, looked up)
chain: SNTSWRKSEVLAVPLQPTLQQEVILARMEQILASRALTDDERAQLLYERGVLYDSLGLRALARNDFSQALAIRPDMPEVFNYLGIYLTQAGNFDAAYEAFDSVLELDPTYNYAHLNRGIALYYGGRDKLAQDDLLAFYQDDPNDPFRSLWLYLAEQKLDEKQAKEVLKQHFEKSDKEQWGWNIVEFYLGNISEQTLMERLKADATDNTSLAEHLSETNFYLGKYYLSLGDLDSATALFKLAVANNVHNFVEHRYALLELSLLGQDQDDLAESDQQ
notes: NlpI, E. coli outer-membrane lipoprotein with four tetratricopeptide repeats, residues S20-Q294, without the lipoprotein signal peptide; Homodimer by AUC and in the crystal. pET28a vector with N-terminal His-tag; no removal of the tag is described; also called WT-NlpI; wild-type sNlpI; source: E. coli BL21(DE3), purified (Ni-NTA, MonoQ, Superdex 200); cleared cell lysate in the pull-down; not …
For B1, the “stoichiometry N” value was 2.

B2: sNlpI-L38A (natural protein, E. coli, UniProt P0AFB1 20-294, looked up)
chain: B1 chain with L19A
notes: NlpI, E. coli, residues S20-Q294 without the signal peptide, L38A in helix h1; source: E. coli BL21(DE3), purified (Ni-NTA, MonoQ, Superdex 200)
With B2 the “stoichiometry N” value was 2.

B3: sNlpI-R82E (natural protein, E. coli, UniProt P0AFB1 20-294, looked up)
chain: B1 chain with R63E
notes: NlpI, E. coli, residues S20-Q294 without the signal peptide, R82E in helix TPR1b; source: E. coli BL21(DE3), purified (Ni-NTA, MonoQ, Superdex 200)
In the case of B3, the “stoichiometry N” value is reported as 2.

B4: sNlpI-L38C (natural protein, E. coli, UniProt P0AFB1 20-294, looked up)
chain: B1 chain with L19C
notes: NlpI, E. coli, residues S20-Q294 without the signal peptide, L38C in helix h1; source: E. coli BL21(DE3), purified (Ni-NTA, MonoQ, Superdex 200)
B4 was tested, and the “stoichiometry N” value was 2.

Source: PMC5686067, “Structural basis of adaptor-mediated protein degradation by the tail-specific PDZ-protease Prc” (Nature Communications, 2017)
